In one test the target is MYO10 (human, UniProt Q9HD67 1-2058, limits assumed). The experiment in a line: IP/MS, LZTR1 R810W-FLAG, U87. In a few lines:
(§1)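 Extracted peptides in 3% acetonitrile/0.1% formic acid ran on a 50 cm C18 column into an Orbitrap Fusion, with MaxQuant identification and spectral counting.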

The next test deals with T1, FBX038 (human, UniProt Q6PIJ6 1-1188, limits assumed).
T1 construct: Printed with a zero; probably FBXO38
T1 sequence (looked up): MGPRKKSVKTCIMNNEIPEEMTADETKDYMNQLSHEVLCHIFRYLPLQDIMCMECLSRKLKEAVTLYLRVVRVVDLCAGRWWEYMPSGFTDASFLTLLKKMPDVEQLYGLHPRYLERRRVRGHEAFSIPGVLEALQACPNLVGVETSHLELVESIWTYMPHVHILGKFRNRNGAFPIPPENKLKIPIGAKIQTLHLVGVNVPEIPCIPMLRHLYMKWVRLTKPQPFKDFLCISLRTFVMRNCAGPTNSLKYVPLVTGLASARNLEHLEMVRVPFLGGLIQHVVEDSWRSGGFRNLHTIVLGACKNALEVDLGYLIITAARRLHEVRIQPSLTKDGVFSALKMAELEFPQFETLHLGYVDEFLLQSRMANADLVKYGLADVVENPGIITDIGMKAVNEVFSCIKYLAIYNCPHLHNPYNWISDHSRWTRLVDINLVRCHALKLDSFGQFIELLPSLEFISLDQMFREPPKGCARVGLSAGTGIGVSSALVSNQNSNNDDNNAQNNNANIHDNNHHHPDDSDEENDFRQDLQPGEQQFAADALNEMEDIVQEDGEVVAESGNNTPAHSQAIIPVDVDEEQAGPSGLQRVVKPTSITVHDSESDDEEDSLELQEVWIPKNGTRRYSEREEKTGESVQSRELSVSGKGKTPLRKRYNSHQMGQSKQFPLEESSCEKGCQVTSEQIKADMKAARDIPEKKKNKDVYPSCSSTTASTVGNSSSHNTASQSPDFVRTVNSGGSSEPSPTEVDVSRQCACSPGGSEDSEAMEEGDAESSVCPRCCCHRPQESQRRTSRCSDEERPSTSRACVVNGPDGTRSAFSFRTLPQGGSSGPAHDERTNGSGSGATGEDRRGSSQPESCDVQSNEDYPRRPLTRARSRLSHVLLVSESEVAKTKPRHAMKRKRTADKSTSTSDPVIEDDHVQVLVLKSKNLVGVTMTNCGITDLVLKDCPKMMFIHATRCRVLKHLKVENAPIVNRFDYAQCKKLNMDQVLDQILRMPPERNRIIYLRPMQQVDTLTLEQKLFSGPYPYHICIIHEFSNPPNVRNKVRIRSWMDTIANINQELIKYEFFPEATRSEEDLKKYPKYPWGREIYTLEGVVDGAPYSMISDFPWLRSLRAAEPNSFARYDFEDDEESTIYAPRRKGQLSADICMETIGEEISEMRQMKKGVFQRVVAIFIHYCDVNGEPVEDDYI
In words: IP/MS, LZTR1 R810W-FLAG, U87. In outline: as §1

The record followed here is patent US20250262210A1 (TRUSTEES OF COLUMBIA UNIVERSITY IN THE CITY OF NEW YORK, published 2025).

Sequence of MYO10 (Q9HD67 whole entry, the tested form may be a part): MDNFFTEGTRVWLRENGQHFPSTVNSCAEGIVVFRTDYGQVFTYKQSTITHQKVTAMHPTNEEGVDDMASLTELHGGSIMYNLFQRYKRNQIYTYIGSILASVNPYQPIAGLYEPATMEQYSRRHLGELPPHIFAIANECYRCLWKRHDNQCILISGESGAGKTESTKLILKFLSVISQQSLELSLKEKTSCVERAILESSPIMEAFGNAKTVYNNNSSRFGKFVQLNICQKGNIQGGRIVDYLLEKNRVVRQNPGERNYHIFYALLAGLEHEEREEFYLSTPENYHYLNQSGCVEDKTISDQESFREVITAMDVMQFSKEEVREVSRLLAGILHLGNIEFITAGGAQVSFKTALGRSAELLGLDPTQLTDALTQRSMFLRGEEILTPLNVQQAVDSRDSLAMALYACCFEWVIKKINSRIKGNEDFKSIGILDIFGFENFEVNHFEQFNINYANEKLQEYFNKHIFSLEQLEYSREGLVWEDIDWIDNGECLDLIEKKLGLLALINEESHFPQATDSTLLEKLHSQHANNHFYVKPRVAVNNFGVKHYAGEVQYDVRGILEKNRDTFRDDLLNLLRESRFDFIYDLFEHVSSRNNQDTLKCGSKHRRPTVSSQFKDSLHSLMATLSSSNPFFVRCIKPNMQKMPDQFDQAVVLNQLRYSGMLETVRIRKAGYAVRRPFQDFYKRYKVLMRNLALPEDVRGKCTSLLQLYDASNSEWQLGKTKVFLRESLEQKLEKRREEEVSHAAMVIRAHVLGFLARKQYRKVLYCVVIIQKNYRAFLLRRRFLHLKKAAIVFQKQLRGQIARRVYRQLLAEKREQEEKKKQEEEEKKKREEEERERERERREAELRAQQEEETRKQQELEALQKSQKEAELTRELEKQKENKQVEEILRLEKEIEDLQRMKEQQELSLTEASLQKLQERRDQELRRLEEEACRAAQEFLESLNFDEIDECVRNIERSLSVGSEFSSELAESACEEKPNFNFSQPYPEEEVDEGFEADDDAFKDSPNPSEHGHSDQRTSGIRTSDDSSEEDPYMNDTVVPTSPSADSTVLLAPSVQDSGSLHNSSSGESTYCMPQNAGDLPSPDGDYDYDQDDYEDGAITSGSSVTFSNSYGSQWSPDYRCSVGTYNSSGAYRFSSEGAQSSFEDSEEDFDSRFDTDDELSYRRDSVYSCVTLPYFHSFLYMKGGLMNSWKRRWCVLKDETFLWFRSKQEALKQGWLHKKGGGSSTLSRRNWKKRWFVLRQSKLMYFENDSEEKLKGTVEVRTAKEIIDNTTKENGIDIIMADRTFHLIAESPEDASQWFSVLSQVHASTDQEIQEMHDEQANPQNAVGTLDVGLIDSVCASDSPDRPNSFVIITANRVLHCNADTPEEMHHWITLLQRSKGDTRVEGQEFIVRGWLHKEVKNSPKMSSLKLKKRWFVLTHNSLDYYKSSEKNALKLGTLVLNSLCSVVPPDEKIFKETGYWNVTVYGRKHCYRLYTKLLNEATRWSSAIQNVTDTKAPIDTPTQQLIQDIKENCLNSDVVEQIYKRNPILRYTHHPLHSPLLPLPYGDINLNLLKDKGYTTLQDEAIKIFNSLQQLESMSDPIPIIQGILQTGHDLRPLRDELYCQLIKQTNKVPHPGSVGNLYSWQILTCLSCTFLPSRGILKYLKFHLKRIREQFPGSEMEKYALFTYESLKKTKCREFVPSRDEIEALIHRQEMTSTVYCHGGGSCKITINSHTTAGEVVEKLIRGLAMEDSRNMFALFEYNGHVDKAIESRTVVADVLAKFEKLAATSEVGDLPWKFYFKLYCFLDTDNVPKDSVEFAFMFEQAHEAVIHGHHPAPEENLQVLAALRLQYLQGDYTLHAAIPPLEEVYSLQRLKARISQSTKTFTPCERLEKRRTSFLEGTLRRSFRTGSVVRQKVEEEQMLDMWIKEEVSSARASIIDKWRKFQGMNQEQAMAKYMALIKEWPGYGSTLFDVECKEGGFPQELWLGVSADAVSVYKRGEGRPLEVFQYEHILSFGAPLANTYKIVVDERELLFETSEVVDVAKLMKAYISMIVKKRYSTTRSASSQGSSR

B1: LZTR1 R810W-FLAG (other, human, UniProt Q8N653 1-840, looked up)
chain: MAGPGSTGGQIGAAALAGGARSKVAPSVDFDHSCSDSVEYLTLNFGPFETVHRWRRLPPCDEFVGARRSKHTVVAYKDAIYVFGGDNGKTMLNDLLRFDVKDCSWCRAFTTGTPPAPRYHHSAVVYGSSMFVFGGYTGDIYSNSNLKNKNDLFEYKFATGQWTEWKIEGRLPVARSAHGATVYSDKLWIFAGYDGNARLNDMWTIGLQDRELTCWEEVAQSGEIPPSCCNFPVAVCRDKMFVFSGQSGAKITNNLFQFEFKDKTWTRIPTEHLLRGSPPPPQRRYGHTMVAFDRHLYVFGGAADNTLPNELHCYDVDFQTWEVVQPSSDSEVGGAEVPERACASEEVPTLTYEERVGFKKSRDVFGLDFGTTSAKQPTQPASELPSGRLFHAAAVISDAMYIFGGTVDNNIRSGEMYRFQFSCYPKCTLHEDYGRLWESRQFCDVEFVLGEKEECVQGHVAIVTARSRWLRRKITQARERLAQKLEQEAAPVPREAPGVAAGGARPPLLHVAIREAEARPFEVLMQFLYTDKIKYPRKGHVEDVLLIMDVYKLALSFQLCRLEQLCRQYIEASVDLQNVLVVCESAARLQLSQLKEHCLNFVVKESHFNQVIMMKEFERLSSPLIVEIVRRKQQPPPRTPLDQPVDIGTSLIQDMKAYLEGAGAEFCDITLLLDGHPRPAHKAILAARSSYFEAMFRSFMPEDGQVNISIGEMVPSRQAFESMLRYIYYGEVNMPPEDSLYLFAAPYYYGFYNNRLQAYCKQNLEMNVTVQNVLQILEAADKTQALDMKRHCLHIIVHQFTKVSKLPTLWSLSQQLLLDIIDSLASHISDKQCAELGADI
notes: Stably expressed in U87 cells by lentivirus; also called LZTR1-FLAG-R810W; LZTR1 RW; not shown: FLAG tag
Regarding B1, the binding result with MYO10 and in the test with FBX038 was “binds” in each case.
